Literature values in publication PMC2645917 (Journal of medicinal chemistry, 2008).

Details: in vivo, iv

exenatide
Half-life after i.v. injection: 26 min
